Tests used:
[1] = biological target: T1, recombinant D5 domain polypeptide of human KIT (N410 to H515, with 5xHis tag) (human, UniProt P10721 26-519); assay: solid phase ELISA, D5 antigen coated on the plate
T1 construct: The end residue 144 was computed (33 + 106 + 5); also called D5 region; D5 domain of human KIT

[2] = biological target: T2, recombinant D4 domain polypeptide of human KIT (V308 to K412, with 6xHis tag) (human, UniProt P10721 26-412); assay: solid phase ELISA, antigen coated on plate; D4 region alone
T2 construct: The end residue 144 was computed (33 + 105 + 6); also called D4 region; D4 domain of human KIT

[3] = biological target: T3, recombinant KIT D4/D5 polypeptide (D4/D5 region of human KIT, V308 to H515, with 5xHis tag) (human, UniProt P10721 26-519); assay: competition solid phase ELISA on KIT D4/D5 antigen; reference 37M titrated alone, no competitor
T3 construct: The end residue 246 was computed from the stated composition (33 + 208 + 5); This is the glycosylated (untreated) form; also called KIT D4/D5 antigen; KIT immunogen

[4] = biological target: full-length, wild-type human KIT (human, UniProt P10721 26-976); assay: cell-based or functional assay
[5] = biological target: T3, recombinant KIT D4/D5 polypeptide …; assay: competition solid phase ELISA on KIT D4/D5 antigen; reference 37M titrated with competitor antibody 37C at 10 nM

full-length, wild-type human KIT, sequence (P10721 other isoform, or with tags, fused parts or gaps limits assumed): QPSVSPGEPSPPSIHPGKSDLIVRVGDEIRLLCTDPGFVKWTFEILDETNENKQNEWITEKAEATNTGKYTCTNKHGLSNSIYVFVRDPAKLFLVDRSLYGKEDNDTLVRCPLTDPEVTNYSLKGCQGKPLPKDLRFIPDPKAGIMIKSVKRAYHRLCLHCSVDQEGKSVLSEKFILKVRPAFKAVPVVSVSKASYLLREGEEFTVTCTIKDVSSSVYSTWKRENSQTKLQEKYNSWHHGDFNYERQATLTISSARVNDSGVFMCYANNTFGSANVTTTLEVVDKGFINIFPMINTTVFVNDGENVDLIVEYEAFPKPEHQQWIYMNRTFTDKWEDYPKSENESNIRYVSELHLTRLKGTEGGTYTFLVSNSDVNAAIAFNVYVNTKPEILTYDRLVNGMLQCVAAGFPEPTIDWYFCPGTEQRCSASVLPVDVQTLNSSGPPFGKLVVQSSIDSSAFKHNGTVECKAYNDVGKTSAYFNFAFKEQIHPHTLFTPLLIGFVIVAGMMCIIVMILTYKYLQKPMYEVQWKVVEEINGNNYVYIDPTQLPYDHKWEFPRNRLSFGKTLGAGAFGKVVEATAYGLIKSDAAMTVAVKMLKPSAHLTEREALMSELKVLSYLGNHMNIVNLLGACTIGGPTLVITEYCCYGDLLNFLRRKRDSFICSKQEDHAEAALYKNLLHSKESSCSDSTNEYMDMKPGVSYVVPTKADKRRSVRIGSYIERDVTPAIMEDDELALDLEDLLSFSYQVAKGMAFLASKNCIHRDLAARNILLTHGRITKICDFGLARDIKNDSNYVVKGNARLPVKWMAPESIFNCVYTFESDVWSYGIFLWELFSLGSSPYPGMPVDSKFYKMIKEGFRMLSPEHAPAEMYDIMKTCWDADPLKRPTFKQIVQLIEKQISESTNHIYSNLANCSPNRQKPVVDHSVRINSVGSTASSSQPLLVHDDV
T3 sequence (P10721 other isoform, or with tags, fused parts or gaps): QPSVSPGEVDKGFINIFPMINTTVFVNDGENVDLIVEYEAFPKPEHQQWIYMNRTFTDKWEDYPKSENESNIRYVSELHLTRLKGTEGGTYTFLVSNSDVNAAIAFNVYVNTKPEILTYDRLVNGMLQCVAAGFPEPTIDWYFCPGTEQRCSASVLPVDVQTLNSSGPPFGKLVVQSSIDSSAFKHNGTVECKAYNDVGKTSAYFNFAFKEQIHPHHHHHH
T1 sequence (P10721 other isoform, or with tags, fused parts or gaps): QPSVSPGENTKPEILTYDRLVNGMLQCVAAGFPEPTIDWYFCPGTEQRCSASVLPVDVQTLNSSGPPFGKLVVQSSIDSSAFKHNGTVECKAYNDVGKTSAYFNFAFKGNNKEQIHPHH
T2 sequence (P10721 other isoform, or with tags, fused parts or gaps): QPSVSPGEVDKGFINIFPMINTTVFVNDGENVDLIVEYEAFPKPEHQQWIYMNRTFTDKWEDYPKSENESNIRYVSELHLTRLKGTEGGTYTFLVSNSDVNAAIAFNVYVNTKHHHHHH

B1: antibody 37M (antibody, V domains shown)
VH: QVQLKQSGAELVRPGASVKLSCKASGYTFTDYYINWVKQRPGQGLEWIARIYPGSGNTYYNEKFKGKATLTAEKSSSTAYMQLSSLTSEDSAVYFCARGVYYFDYWGQGTTLTVSS
VL: DIVMTQSQKFMSTSVGDRVSVTCKASQNVRTNVAWYQQKPGQSPKALIYSASYRYSGVPDRFTGSGSGTDFTLTISNVQSEDLADYFCQQYNSYPRTFGGGTKLEIKR
notes: also called anti-KIT antibody 37M; 37M antibody
With B1 the EC50 [1] was greater than 3000 nM, the EC50 [2] was roughly 0.572 nM and the EC50 [3] was 0.115 nM. For the same binder, the “50% inhibition concentration (IC50) of SCF-induced KIT tyrosine phosphorylation, cell-based phospho-KIT assay, CHO/KIT-WT cells” value [4] was roughly 0.109 nM, the “IC50 of SCF-induced AKT phosphorylation (phospho-AKT assay), sorted CHO/KIT-WT cells” value [4] was roughly 0.138 nM and the “IC50 of SCF-induced KIT tyrosine phosphorylation, separate experiment (FIG. 11A), CHO/KIT-WT cells” value [4] was roughly 0.096 nM. For the same binder, the EC50 [5] was 2.8 nM.

From patent publication US20190100598A1 (CELLDEX THERAPEUTICS, published 2019)
